Results on nine molecules are retold here after patent US11505811B2, “Method for the preparation of 2,4-dihydroxybutyrate” (ADISSEO FRANCE S.A.S., priority 2012, dated 2022).

Data set [1] can be described thus: OHB reductase activity, NADH absorption at 340 nm. In kind it is biochemical. The method, then: (§1) Enzymatic assays: The reaction mixture contained 60 mM Hepes (pH 7), 50 mM potassium chloride, 5 mM MgCl2, 0.25 mM NADH, (optionally 5 mM fructose-1,6-bisphosphate) (all products from Sigma), and appropriate amounts of purified malate or lactate dehydrogenase or cell extract. Reactions were started by adding appropriate amounts of 2-oxo-4-hydroxybutyrate (OHB), pyruvate, or oxaloacetate (OAA). Enzymatic assays were carried out at 37° C. in 96-well flat bottomed microtiter plates in a final volume of 250 μL. The reactions were followed by the characteristic absorption of NADH at 340 nm (εNADH=6.22 mM^−1 cm^−1) in a microplate reader (BioRad 680XR).
OHB was synthesized by incubating 125 mM homoserine with snake venom (L)-amino acid oxidase (1.25 U/mL, Sigma) and catalase (4400 U/mL, Sigma) in 100 mM Tris buffer at pH 7.8 for 90 min at 37° C. Subsequently, the reaction mixture was purified on an Amicon™ Ultra centrifugal filter with a cut-off of 10 kDa to eliminate the enzymes (method adapted from Wellner & Lichtenberg, 1971).
OHB was quantified by mixing 100 μL of the tested solution with 1 mL of a solution containing 1 M sodium arsenate and 1 M boric acid at pH 6.5. The mixture was incubated at room temperature for 30 min and the absorbance at 325 nm was used to quantify OHB. The relation between absorbance and concentration of the ketone was calibrated using pyruvate solutions of known concentrations (method adapted from (Wellner & Lichtenberg, 1971)). The typical OHB yield of the method was 90%.

Data set [2] can be described thus: oxaloacetate reductase activity, NADH absorption at 340 nm. In kind it is biochemical. Particulars: for Max. specific activity, OAA: E. coli Mdh mutants, measured at 0.5 mM oxaloacetate. The method, then:
as §1

Setting [3] is: E. coli Mdh mutants, measured at 20 mM OHB.

B1: Ec-Mdh: (L)-malate dehydrogenase from Escherichia coli, SEQ ID NO: 2 (protein, listed as Escherichia coli)
chain: MKVAVLGAAGGIGQALALLLKTQLPSGSELSLYDIAPVTPGVAVDLSHIPTAVKIKGFSGEDATPALEGADVVLISAGVARKPGMDRSDLFNVNAGIVKNLVQQVAKTCPKACIGIITNPVNTTVAIAAEVLKKAGVYDKNKLFGVTTLDIIRSNTFVAELKGKQPGEVEVPVIGGHSGVTILPLLSQVPGVSFTEQEVADLTKRIQNAGTEVVEAKAGGGSATLSMGQAAARFGLSLVRALQGEQGVVECAYVEGDGQYARFFSQPLLLGKNGVEERKSIGTLSAFEQNALEGMLDTLKKDIALGEEFVNK
For the molecule B1, in data set [1], the “OHB reductase activity, in words” value is “very minor activity”. The “Max. specific activity, OHB” value in data set [1] (setting [3]) was 0.01 µmol/mg/min; in data set [1] (when not saturated, activity estimated at 20 mM substrate) it was 0.01 µmol/mg/min. Also, the “Max. specific activity, OAA” value in data set [2] turned out to be 95 µmol/mg/min. The “Max. specific activity, natural substrate” value in data set [2] (natural substrate of Mdh: oxaloacetate, purified enzyme, 37° C., pH 7) is 95.6 µmol/mg/min.

B2: R81A G179D: E. coli malate dehydrogenase mutant, SEQ ID No. 112 (protein, listed as Escherichia coli)
chain: MKVAVLGAAGGIGQALALLLKTQLPSGSELSLYDIAPVTPGVAVDLSHIPTAVKIKGFSGEDATPALEGADVVLISAGVAAKPGMDRSDLFNVNAGIVKNLVQQVAKTCPKACIGIITNPVNTTVAIAAEVLKKAGVYDKNKLFGVTTLDIIRSNTFVAELKGKQPGEVEVPVIGGHSDVTILPLLSQVPGVSFTEQEVADLTKRIQNAGTEVVEAKAGGGSATLSMGQAAARFGLSLVRALQGEQGVVECAYVEGDGQYARFFSQPLLLGKNGVEERKSIGTLSAFEQNALEGMLDTLKKDIALGEEFVNK
For the molecule B2, the “Max. specific activity, OHB” value in data set [1] (setting [3]) amounted to 4.16 µmol/mg/min. In data set [2], the “Max. specific activity, OAA” value is 0.37 µmol/mg/min.

B3: R81A M85Q: E. coli malate dehydrogenase mutant, SEQ ID No. 104 (protein, listed as Escherichia coli)
chain: MKVAVLGAAGGIGQALALLLKTQLPSGSELSLYDIAPVTPGVAVDLSHIPTAVKIKGFSGEDATPALEGADVVLISAGVAAKPGQDRSDLFNVNAGIVKNLVQQVAKTCPKACIGIITNPVNTTVAIAAEVLKKAGVYDKNKLFGVTTLDIIRSNTFVAELKGKQPGEVEVPVIGGHSGVTILPLLSQVPGVSFTEQEVADLTKRIQNAGTEVVEAKAGGGSATLSMGQAAARFGLSLVRALQGEQGVVECAYVEGDGQYARFFSQPLLLGKNGVEERKSIGTLSAFEQNALEGMLDTLKKDIALGEEFVNK
Turning to B3, the “Max. specific activity, OHB” value in data set [1] (setting [3]) was found to be 4.99 µmol/mg/min. For the same molecule, in data set [2], the “Max. specific activity, OAA” value was found to be 0.5 µmol/mg/min.

B4: R81A 112V: E. coli malate dehydrogenase mutant, SEQ ID No. 115 as printed (protein, listed as Escherichia coli)
chain: MKVAVLGAAGGVGQALALLLKTQLPSGSELSLYDIAPVTPGVAVDLSHIPTAVKIKGFSGEDATPALEGADVVLISAGVAAKPGMDRSDLFNVNAGIVKNLVQQVAKTCPKACIGIITNPVNTTVAIAAEVLKKAGVYDKNKLFGVTTLDIIRSNTFVAELKGKQPGEVEVPVIGGHSGVTILPLLSQVPGVSFTEQEVADLTKRIQNAGTEVVEAKAGGGSATLSMGQAAARFGLSLVRALQGEQGVVECAYVEGDGQYARFFSQPLLLGKNGVEERKSIGTLSAFEQNALEGMLDTLKKDIALGEEFVNK
As for B4, the “Max. specific activity, OHB” value in data set [1] (setting [3]) was found to be 4.9 µmol/mg/min. Further, the “Max. specific activity, OAA” value in data set [2] is 0.5 µmol/mg/min.

B5: R81A M85E I12V: E. coli malate dehydrogenase mutant, SEQ ID No. 110 (protein, listed as Escherichia coli)
chain: MKVAVLGAAGGVGQALALLLKTQLPSGSELSLYDIAPVTPGVAVDLSHIPTAVKIKGFSGEDATPALEGADVVLISAGVAAKPGEDRSDLFNVNAGIVKNLVQQVAKTCPKACIGIITNPVNTTVAIAAEVLKKAGVYDKNKLFGVTTLDIIRSNTFVAELKGKQPGEVEVPVIGGHSGVTILPLLSQVPGVSFTEQEVADLTKRIQNAGTEVVEAKAGGGSATLSMGQAAARFGLSLVRALQGEQGVVECAYVEGDGQYARFFSQPLLLGKNGVEERKSIGTLSAFEQNALEGMLDTLKKDIALGEEFVNK
On to B5, for which the “Max. specific activity, OHB” value in data set [1] (setting [3]) stood at 12.54 µmol/mg/min. Besides, the “Max. specific activity, OAA” value in data set [2] worked out at 2.2 µmol/mg/min.

B6: R81A M85Q I12V: E. coli malate dehydrogenase mutant, SEQ ID No. 108 (protein, listed as Escherichia coli)
chain: MKVAVLGAAGGVGQALALLLKTQLPSGSELSLYDIAPVTPGVAVDLSHIPTAVKIKGFSGEDATPALEGADVVLISAGVAAKPGQDRSDLFNVNAGIVKNLVQQVAKTCPKACIGIITNPVNTTVAIAAEVLKKAGVYDKNKLFGVTTLDIIRSNTFVAELKGKQPGEVEVPVIGGHSGVTILPLLSQVPGVSFTEQEVADLTKRIQNAGTEVVEAKAGGGSATLSMGQAAARFGLSLVRALQGEQGVVECAYVEGDGQYARFFSQPLLLGKNGVEERKSIGTLSAFEQNALEGMLDTLKKDIALGEEFVNK
In the case of B6, the “Max. specific activity, OHB” value in data set [1] (setting [3]) was 18.9 µmol/mg/min. In addition, the “Max. specific activity, OAA” value in data set [2] stood at 1.84 µmol/mg/min.

B7: R81A M85E: E. coli malate dehydrogenase mutant, SEQ ID No. 106 (protein, listed as Escherichia coli)
chain: MKVAVLGAAGGIGQALALLLKTQLPSGSELSLYDIAPVTPGVAVDLSHIPTAVKIKGFSGEDATPALEGADVVLISAGVAAKPGEDRSDLFNVNAGIVKNLVQQVAKTCPKACIGIITNPVNTTVAIAAEVLKKAGVYDKNKLFGVTTLDIIRSNTFVAELKGKQPGEVEVPVIGGHSGVTILPLLSQVPGVSFTEQEVADLTKRIQNAGTEVVEAKAGGGSATLSMGQAAARFGLSLVRALQGEQGVVECAYVEGDGQYARFFSQPLLLGKNGVEERKSIGTLSAFEQNALEGMLDTLKKDIALGEEFVNK
On to B7, for which the “Max. specific activity, OHB” value in data set [1] (setting [3]) is 3 µmol/mg/min. Moreover, the “Max. specific activity, OAA” value in data set [2] worked out at 1 µmol/mg/min.

B8: R81A D86S: E. coli malate dehydrogenase mutant, SEQ ID No. 1114 as printed (protein, UniProt P61889 1-312, looked up, variant R81A D86S)
Malate dehydrogenase: MKVAVLGAAGGIGQALALLLKTQLPSGSELSLYDIAPVTPGVAVDLSHIPTAVKIKGFSGEDATPALEGADVVLISAGVAAKPGMSRSDLFNVNAGIVKNLVQQVAKTCPKACIGIITNPVNTTVAIAAEVLKKAGVYDKNKLFGVTTLDIIRSNTFVAELKGKQPGEVEVPVIGGHSGVTILPLLSQVPGVSFTEQEVADLTKRIQNAGTEVVEAKAGGGSATLSMGQAAARFGLSLVRALQGEQGVVECAYVEGDGQYARFFSQPLLLGKNGVEERKSIGTLSAFEQNALEGMLDTLKKDIALGEEFVNK
In the case of B8, in data set [1] (setting [3]), the “Max. specific activity, OHB” value was found to be 14.6 µmol/mg/min. Moreover, in data set [2], the “Max. specific activity, OAA” value is 0.67 µmol/mg/min.

B9: R81A: E. coli malate dehydrogenase mutant R81A, SEQ ID No. 102 (protein, listed as Escherichia coli)
chain: MDHRAMKVAVLGAAGGIGQALALLLKTQLPSGSELSLYDIAPVTPGVAVDLSHIPTAVKIKGFSGEDATPALEGADVVLISAGVAAKPGMDRSDLFNVNAGIVKNLVQQVAKTCPKACIGIITNPVNTTVAIAAEVLKKAGVYDKNKLFGVTTLDIIRSNTFVAELKGKQPGEVEVPVIGGHSGVTILPLLSQVPGVSFTEQEVADLTKRIQNAGTEVVEAKAGGGSATLSMGQAAARFGLSLVRALQGEQGVVECAYVEGDGQYARFFSQPLLLGKNGVEERKSIGTLSAFEQNALEGMLDTLKKDIALGEEFVNK
Consider B9, for which the “Max. specific activity, OHB” value in data set [1] (setting [3]) was 1.8 µmol/mg/min. The “Max. specific activity, OAA” value in data set [2] was found to be 1.16 µmol/mg/min.
